What was measured:
[1] = target: NS4b full-length (residues 1-249), C-terminal six-histidine tag (dengue virus serotype 1); assay: SEC
[2] = target: NS4b full-length (residues 1-249), C-terminal six-histidine tag (dengue virus serotype 1); assay: BLI

| Substance | stoichiometry N [1] | Kd [2] |
| --- | --- | --- |
| NS4b full-length (residues 1-249), C-terminal six-histidine tag (natural protein) | 2 |  |
| helicase domain of DENV NS3 (NS3Hel), residues 178-619, C-terminal 6-histidine tag (domain or fragment) |  | 508 nM |

Reference: PMC9412862
